Positions count from the first letter of the chain named.
B1: 7C7 antibody (antibody, V domains shown)
VH: EVQLQQSGPELVKPGASVRMSCKASGYTFTSYVMHWVKQKPGQGLEWIGYINPYNDGTKYNEKFKGKSTLTSDKSSSTAYMELSSLTSEDSAVYCCARGRNRYDSWFAYWGQGTLVTVSA
VL: DIQMTQTTSSLSASLGDRVTISCRASQDISNYLNWYQQKPDGTVKLLIYYTSRLHSGVPSRFSGSGSGTDYSLTISNLEQEDIATYFCQQGNTLPWTFGGGTKLEIK
notes: Monoclonal antibody from a hybridoma (mouse myeloma fusion), detected with anti-mouse IgG; In the ELISA hybridoma culture solution was used
B2: 5A4 antibody (antibody, V domains shown)
VH: QVQLQQPGPELVRPGASVKMSCKASGYTFTNYWIHWVKQRPGQGLEWIGMIDPSNSATRLNQKFKDKATLNVDKSSNTAYMQLSSLTSEDSAVYYCARGGFAFDSWGQGTTLTVSS
VL: DVLMTQTPLSLPVSLGDQASISCRSSQSLVHSNGNTYLHWYLQKPGQSPKLLIYKVSNRFSGVPDRFSGSGSGTDFTLKISRVEAEDLGVYFCSQSTHVPWTFGGGTKLEIK
notes: Hybridoma monoclonal antibody detected with anti-mouse IgG
B3: 1E7 antibody (antibody, V domains shown)
VH: EVQLQQSGPELIKPGASVKMSCKASGYIFTSYVVYWVKQKPGQGLEWIGYINPYNDGTKYNEKFKGKATLTSYKSSSTAYMELSSLTSADSAVYYCARGGFTTDYWGQGTTLTVSS
VL: B2 VL with W101Y
notes: as for B2
B4: 5H4 antibody (antibody, V domains shown)
VH: QVQLQQPGAELVKPGTSVKMSCKASGYTFTNYWMHWVKQRPGQVLEWIGVIDPSDSYTSYNQKFKGKATLTVDTSSTTAYMQLSSLTSEDSAVYYCTRGGKRAMDYWGQGTSVTVSS
VL: B2 VL with W101F, G105S
notes: as for B2
B5: 4E12 antibody (antibody, V domains shown)
VH: QIQFAQSGPELKKSGETVKISCRASGYTFTNYGMNWVKQAPGKGLKWMGWINTYTGEPTYADDFKGRFAFSLETSASTAYLQINNLKNEDMATYFCARGGGRGAMDYWGQGTTLTVSS
VL: B2 VL with L29I, H39D, N58K, F92Y, S94F, S96G, T97S, W101F, G105S
notes: as for B2
B6: 3A5 antibody (antibody, V domains shown)
VH: B4 VH with Q1E, T16A, N31S, V37M, K38N, V44G, T77S, T97A
VL: B2 VL with W101F, G105S
notes: as for B2
B7: 3H3 antibody (antibody, V domains shown)
VH: B2 VH with Q1E, I34M, A57E, Y95S
VL: B2 VL with S32N, S68R
notes: as for B2

Target: T1, CD47 protein (Acrobiosystems, cat#CD7-HA2E9) (UniProt Q08722 19-139)
T1 construct: Bought recombinant protein, used as immunogen and as ELISA coating (100 ng/well); also called CD47 peptide; CD47 antigen
T1 sequence (Q08722 19-139 limits assumed): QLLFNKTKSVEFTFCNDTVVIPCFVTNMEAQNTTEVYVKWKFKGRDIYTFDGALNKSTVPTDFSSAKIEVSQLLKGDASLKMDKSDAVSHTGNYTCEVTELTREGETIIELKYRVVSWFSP
Assay: ELISA, CD47 protein coated 100 ng/well, 3 ul hybridoma culture solution, anti-mIgG-HRP
Method: 3 μl of hybridoma cell culture solution of each clone for producing 7C7, 5H4, 5A4, 4E12, 3H3, 3A5, or 1E7 antibody was treated in each well, and then reacted at room temperature for 2 hours, and then washed 3 times with 1× PBST. Secondary antibody ([…], 1:10,000) was treated and reacted at room temperature for 30 minutes, washed 3 times with 1× PBST, and then treated with TMB for color development and reacted at room temperature for 5 minutes. Finally, the reaction was terminated by treatment with a stop solution of 1N H₂SO₄, and then the absorbance was measured at 450 nm.

Molecule	OD450 measurements [OD450]
B1	1.98
B2	1.93
B3	2.14
B4	1.91
B5	2.15
B6	2.01
B7	1.97

Target: T2, CD47 on breast cancer cell line MCF-7 (UniProt Q08722 19-323, limits assumed)
T2 construct: whole, on cells; Endogenous CD47 of MCF-7 cells; also called CD47-expressing tumor cells (MCF-7); CD47-expressing cells
T2 sequence (Q08722 19-323 limits assumed): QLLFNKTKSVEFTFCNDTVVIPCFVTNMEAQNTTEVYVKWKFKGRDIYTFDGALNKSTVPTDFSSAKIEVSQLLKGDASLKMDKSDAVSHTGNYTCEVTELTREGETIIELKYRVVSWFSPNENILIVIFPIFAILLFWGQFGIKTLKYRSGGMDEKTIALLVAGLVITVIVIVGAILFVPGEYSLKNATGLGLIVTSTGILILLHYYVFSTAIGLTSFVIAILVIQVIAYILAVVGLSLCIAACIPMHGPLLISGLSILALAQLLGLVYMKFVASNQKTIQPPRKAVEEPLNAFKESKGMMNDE
Assay: flow cytometry on MCF-7 cells, secondary antibody alone (background control)

Molecule	Mean	Median
PE-conjugated goat anti-mouse IgG (Biolegend Inc., cat# 405307) (antibody)	80	73.9

Target: T2, CD47 on breast cancer cell line MCF-7
Assay: flow cytometry on MCF-7 cells, 1 ug antibody, PE anti-mouse IgG
Method: First, 1×10⁷ of breast cancer cell line MCF-7 expressing CD47 and 1 μg of 7C7, 5H4, […], 3H3, 3A5, and 1E7 antibody were reacted for 30 minutes, respectively, and then stained on surface with a secondary antibody. After staining, it was measured by flow cytometry.
As a positive control, CD47 antibody (Biolegend PE anti-human CD47, cat# 323108, 5 μl) was used, and as a secondary antibody, PE-conjugated anti-mouse IgG antibody (PE-conjugated goat anti-mouse IgG; Biolegend Inc., cat# 405307, USA, 5 μl) was used.

Molecule	Mean	Median
B1	6820	6110
B2	16000	14700
B3	16100	14900
B4	15500	14300
B5	6030	5380
B6	15000	13900
B7	18000	16500

Reference: US20240034790A1 (INNOBATION BIO, published 2024)
